From patent EP3689907A1 (Numab Therapeutics AG, dated 2020)

T1: cynomolgus monkey IL-17A (cynomolgus monkey (Macaca fascicularis))
T1 chain: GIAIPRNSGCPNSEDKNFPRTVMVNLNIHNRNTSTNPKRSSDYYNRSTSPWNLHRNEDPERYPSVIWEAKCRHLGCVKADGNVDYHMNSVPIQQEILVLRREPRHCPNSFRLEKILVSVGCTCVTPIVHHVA

T2: human IL-17E (human, UniProt Q9H293 33-177)
T2 construct: also called IL-25
T2 sequence: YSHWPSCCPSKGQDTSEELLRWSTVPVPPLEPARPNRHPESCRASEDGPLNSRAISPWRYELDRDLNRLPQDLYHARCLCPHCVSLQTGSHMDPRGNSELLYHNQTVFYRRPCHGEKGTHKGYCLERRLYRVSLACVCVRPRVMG

T3: human IL-17B (human, UniProt Q9UHF5 21-180)
T3 sequence: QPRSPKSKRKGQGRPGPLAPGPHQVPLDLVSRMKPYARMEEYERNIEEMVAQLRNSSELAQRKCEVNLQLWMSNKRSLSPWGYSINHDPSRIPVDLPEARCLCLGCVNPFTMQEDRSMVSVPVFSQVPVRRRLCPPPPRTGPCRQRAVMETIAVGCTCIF

T4: human IL-17C (human, UniProt Q9P0M4 19-197)
T4 sequence: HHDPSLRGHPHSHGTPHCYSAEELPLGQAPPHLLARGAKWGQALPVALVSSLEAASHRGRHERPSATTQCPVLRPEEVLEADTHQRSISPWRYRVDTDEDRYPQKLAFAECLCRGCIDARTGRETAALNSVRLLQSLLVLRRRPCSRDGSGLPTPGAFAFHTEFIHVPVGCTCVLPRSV

T5: human IL-17D (human, UniProt Q8TAD2 16-202, limits assumed)
T5 sequence: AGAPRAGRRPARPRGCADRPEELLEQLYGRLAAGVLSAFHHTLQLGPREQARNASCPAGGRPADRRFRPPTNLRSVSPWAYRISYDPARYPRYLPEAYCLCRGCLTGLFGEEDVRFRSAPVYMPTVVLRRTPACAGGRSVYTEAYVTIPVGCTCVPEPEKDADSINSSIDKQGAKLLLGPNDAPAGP

T6: human IL-17F (human, UniProt Q96PD4 31-163)
T6 construct: Peprotech Cat. No. 200-25 in the direct ELISA
T6 sequence: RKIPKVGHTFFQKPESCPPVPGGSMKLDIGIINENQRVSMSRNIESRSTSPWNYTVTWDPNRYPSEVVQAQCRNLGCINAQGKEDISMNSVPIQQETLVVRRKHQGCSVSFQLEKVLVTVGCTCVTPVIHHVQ


Columns and labels:
[1] = target: T1, cynomolgus monkey IL-17A; test: SPR (Biacore T200), cynomolgus IL-17A (Trenzyme), scFv as analyte
[2] = target: T2, human IL-17E; test: competition ELISA: coated scFv, biotinylated IL-17A, unlabeled cytokine as competitor
[3] = target: T3, human IL-17B; test: as above
[4] = target: T4, human IL-17C; test: as above
[5] = target: T5, human IL-17D; test: as above
[6] = target: T6, human IL-17F; test: as above

Kd [1]	koff [1]	kon [1]	binding result [2]	binding result [3]	binding result [4]	binding result [5]	binding result [6]	Binder
0.0331 nM	3.88e-05 s⁻¹	1.17e+06 M⁻¹ s⁻¹	no binding	no binding	no binding	no binding	no binding	PRO571 (scFv, also called 27-31-C04-sc01; 27_31_C04_sc01) scFv: DIQMTQSPSSLSASVGDRVTITCQASESIYRYLSWYQQKPGKAPKLLIYLASTLTSGVPSRFSGSGSGTDFTLTISSLQPEDFATYYCQSNFGTASTTYYNTFGGGTKLTVLGGGGGSGGGGSGGGGSGGGGSEVQLVESGGGLVQPGGSLRLSCAASGFSFSGFYYMCWVRQAPGKGLEWIGCIDTGDGTTYYASWAKGRFTISRDNSKNTVYLQMNSLRAEDTAVYYCARDAAYGGYAYPAHGMDLWGQGTLVTVSS
0.16 nM	5.38e-05 s⁻¹	336000 M⁻¹ s⁻¹	no binding	no binding	no binding	no binding	no binding	PRO592 (scFv, also called 27-31-C04-sc02; 27_31_C04_sc02) scFv: DIQMTQSPSSLSASVGDRVTITCQASESIYRYLSWYQQKPGKAPKLLIYLASTLTSGVPSRFSGSGSGTDFTLTISSLQPEDFATYYCQSNFGTASTTYYNTFGGGTKLTVLGGGGGSGGGGSGGGGSGGGGSEVQLVESGGGLVQPGGSLTLSCAASGFSFSGFYYMCWVRQAPGKGLEWIGCIDTGDGTTYYASWAKGRFTISRDNSKNTVYLQMNSLRAEDTAVYYCARDAAYGGYAYPAHGMDLWGPGTLVTVSS
